Here are results for one protein from patent publication US20030229922A1, “Materials and methods for the modification of plant cell wall polysaccharides” (GENESIS RESEARCH AND DEVELOPMENT CORPORATION LTD., priority 1998, published 2003).

Substrate in the data set: O=P(O)(O)O[C@H]1O[C@H](CO)[C@@H](O)[C@H](O)[C@H]1O
Kind of data set: purified protein, by the assay type. The settings on record: other: E. grandis UGP; SEM 0.002.

B1: Eucalyptus grandis UGP (UDP-glucose pyrophosphorylase), SEQ ID NO: 79 (DNA; protein SEQ ID NO: 103) (Eucalyptus grandis) (protein)
chain: VLFTHLPPQKPNRISLLLFFIFHITTFLLLLLLLSVLSTFISIAVSLSDPELFFASPPMAAAATLSAPDAAKLSQLKSAVSGLGQISESEKNGFINLVSRYLSGEAQHVDWSKIQTPTDEIVVPYDSLAPTPQDPAATKSLLDKLVVLKLNGGLGTTMGCTGPKSVIEVRNGLTFLDLIVIQIENLNTKYGCNVPLLLMNSFNTHDDTLKIVEKYANSNIDIHTFNQSQYPRLVVEDFMPLPCKGQTGKDGWYPPGHGDVFASLMNSGKLDALLSQGKEYVFAANSDNLGAIVDLKILNHLMTNKNEYCMEVTPKTLADVKGGTLISYEGKVQLLEIAQVPDEHINEFKSIEKFKIFNTNNLWVNLKAIKRLVEAQALKMEIIPNPKEVDGIKVLQLETAAGAAIKFFDNAIGINVPRSRFLPVKATSDLLLVQSDLYTLVDGFVERNKARTNPSNPSIELGPEFKKVGNFLSRFKSIPSIIELDSLKVSGDVWFGTGITLKGKVTIAAKPGVKLEIPDGVVLENKEIHGPEDL
Broadly, the Km is the substrate concentration at which the rate is half of its maximum. Regarding B1, the Km came to 126 µM.
